Reference: patent US10800847

What was measured:
[1] = target: HLA-B*3801 (B38) (human); experiment: Luminex single-antigen beads (iBeads), culture supernatant
[2] = target: HLA-B*4501 (B45) (human); experiment: as above
[3] = target: HLA-B*4006 (B61) (human); experiment: as above
[4] = target: HLA-B*5101 (B51) (human); experiment: as above
[5] = target: HLA-B*4101 (B41) (human); experiment: as above
[6] = target: HLA-B*3501 (B35) (human); experiment: as above
[7] = target: HLA-B*4201 (B42) (human); experiment: as above
[8] = target: HLA-B*4402 (B44) (human); experiment: as above
[9] = target: HLA-B*4002 (B61) (human); experiment: as above
[10] = target: HLA-B*5001 (B50) (human); experiment: as above
[11] = target: HLA-B*4801 (B48) (human); experiment: as above
[12] = target: HLA-B*4403 (B44) (human); experiment: as above
[13] = target: HLA-B*4901 (B49) (human); experiment: as above
[14] = target: HLA-B*3701 (B37) (human); experiment: as above
[15] = target: HLA-B*4001 (B60) (human); experiment: as above
[16] = target: HLA-B*3901 (B39) (human); experiment: as above
[17] = target: HLA-B*4701 (B47) (human); experiment: as above
[18] = target: HLA-B*4601 (B46) (human); experiment: as above
[19] = target: HLA-A*2902 (A29) single antigen bead (human); experiment: Luminex single antigen bead assay (IBEADS), culture supernatant
[20] = target: HLA-A*2901 (A29) single antigen bead (human); experiment: as above
[21] = target: HLA-A*2402 (A24) single antigen bead (human); experiment: as above
[22] = target: HLA-A*2403 (A24) single antigen bead (human); experiment: as above
[23] = target: Negative control beads coated with serum albumin (HSA/BSA) (human or bovine); experiment: as above
[24] = target: HLA-A*0301 (A3) single antigen bead (human); experiment: as above
[25] = target: HLA-A*0101 (A1) single antigen bead (human); experiment: as above
[26] = target: HLA-A*2501 (A25) single antigen bead (human); experiment: as above
[27] = target: HLA-A*0201 (A2) single antigen bead (human); experiment: as above
[28] = target: HLA-A*2301 (A23) single antigen bead (human); experiment: as above
[29] = target: HLA-A*3002 (A30) single antigen bead (human); experiment: as above
[30] = target: HLA-A*1101 (A11) single antigen bead (human); experiment: as above
[31] = target: HLA-A*3001 (A30) single antigen bead (human); experiment: as above
[32] = target: HLA-A*1102 (A11) single antigen bead (human); experiment: as above
[33] = target: HLA-A*0203 (A2) single antigen bead (human); experiment: as above
[34] = target: HLA-A*2601 (A26) single antigen bead (human); experiment: as above
[35] = target: HLA-A*0206 (A2) single antigen bead (human); experiment: as above

TFL Anti-HLA-E Mab PTG-006 (antibody)
MFI [1]: 24 MFI | MFI [2]: 18 MFI | MFI [3]: 41 MFI | MFI [4]: 45 MFI | MFI [5]: 89 MFI | MFI [6]: 60 MFI | MFI [7]: 32 MFI | MFI [8]: 32 MFI | MFI [9]: 33 MFI | MFI [10]: 67 MFI | MFI [11]: 21 MFI | MFI [12]: 18 MFI | MFI [13]: 71 MFI | MFI [14]: 43 MFI | MFI [15]: 28 MFI | MFI [16]: 21 MFI | MFI [17]: 38 MFI | MFI [18]: 23 MFI | MFI [19]: 23 MFI | MFI [20]: 115 MFI | MFI [21]: 42 MFI | MFI [22]: 53 MFI | MFI [23]: 6 MFI | MFI [24]: 36 MFI | MFI [25]: 28 MFI | MFI [26]: 24 MFI | MFI [27]: 31 MFI | MFI [28]: 36 MFI | MFI [29]: 69 MFI | MFI [30]: 51 MFI | MFI [31]: 45 MFI | MFI [32]: 60 MFI | MFI [33]: 31 MFI | MFI [34]: 57 MFI | MFI [35]: 27 MFI
